From the nanobody polyreactivity screen of Harvey et al. (2022)

Test: yeast display, Sf9 membrane polyspecificity reagent, FACS + sequencing; frameworks hold sequencing errors
Procedure, shortened: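 In a synthetic yeast display library (Saccharomyces cerevisiae BJ5465), nanobody expression was induced with galactose for 36–48 hours. FACS gates were set low and high (top ~1%) using anti-HA fluorescence for expression and streptavidin fluorescence for binding of the Sf9 membrane reagent. Each polyreactivity label is drawn from the gate of origin.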

QVQLVESGGGLVQAGGSLRLSCAASGITFAYYAMGWSRQAPGKERELVAAIRWSGGDTYYADSVKGRFTISRDNAKNTVYLQMNSLKPEDTAVYYCAADTTWGYDYWGQGTQVTVSS
polyreactivity (PSR sort gate): low polyreactivity

QVQLVESGGGLVQAGGSLRLSCAASGITFAYYAMGWYRQAPGKERELVAAITRGGSTFYADSVKGRFTISRDNAKNTVYLQMNSLKPEDTAVYYCAKRYGTNTRYYHPYRYDYWGQGTQVTVSS
polyreactivity (PSR sort gate): high polyreactivity

QVQLVESGGGLVQAGGSLRLSCAASGITFAYYVMGWYRQAPGKERELVAAINGSGGSTYYADSVKGRFTISRDTAKNTVYLQMNSLKPEDTAVYYCAAEQYVYRRYPEPDWYAYNYWGQGTQVTVSS
polyreactivity (PSR sort gate): high polyreactivity

QVQLVESGGGLVQAGGSLRLSCAASGITFCYYGMGRYRQAPGKERELVAAISSGGRTYYADSVKGRFTISRDNAKNTVYLQMNSLNPEDSAVYYCADRTKYIFVYQGVYWGQGTQVTVSS
polyreactivity (PSR sort gate): high polyreactivity

QVQLVESGGGLVQAGGSLRLSCAASGITFDANTMGWYRQAPGKERELVAVITDTGSTNYADSVKGRFTISRDNAKNTVYLQMNSLKPEDTAVYYCNADAEPSSGTSANNDYWGQGTQVTVSS
polyreactivity (PSR sort gate): low polyreactivity

QVQLVESGGGLVQAGGSLRLSCAASGITFDDYDMGWYRQAPGKEREFVAAISFSGSSTYYADSVKGRFTISRDNAKNTVYLQMNSLKPEDTAVYYCNADYVYSGGRYYGKDYWFDYWGQGTQVTVSS
polyreactivity (PSR sort gate): low polyreactivity

QVQLVESGGGLVQAGGSLRLSCAASGITFDEYAMGWYRQAPGKERELVAVISRSGGTTYYADSVKGRFTISRDNAKNTVYLQMNSLKPEDTAVYYCNARRWGPPGYYWGQGTQVTVSS
polyreactivity (PSR sort gate): high polyreactivity

QVQLVESGGGLVQAGGSLRLSCAASGITFDGNAMGWYRQEPGKERELVAAIDFSGGSTTYADSVKGRFTISRDNAKNTVYLQMNSLKPEDTAVYYCAAVDWYGFLAVEEYYWGQGTQVTVSS
polyreactivity (PSR sort gate): high polyreactivity

QVQLVESGGGLVQAGGSLRLSCAASGITFDIYNMGWYRQAPGKERELVAAISYSGGSTYYADSVKGRFTISRDNAKNTVYLQMYSLKPEDTAVYYCAAYEGTYFTEVDYWGQGTQVTVSS
polyreactivity (PSR sort gate): low polyreactivity

QVQLVESGGGLVQAGGSLRLSCAASGITFDKYPMGRYRPAPGKDRELVAAISGSDGSTYYADSVKGRFTISRDNAKNSVYVQMNSLKPDDTAVYDCAAESVYAGTYEYDYWGQGTQVTVSS
polyreactivity (PSR sort gate): low polyreactivity

QVQLVESGGGLVQAGGSLRLSCAASGITFDRYALGWYRPAPGKEREFVAAISWRGGSTYYADSVKGRFTISRDNAKNTVYLQMNSLKPEDTAVYYCAVGYYDHDYWYEYWGQGTQVTVSS
polyreactivity (PSR sort gate): high polyreactivity

QVQLVESGGGLVQAGGSLRLSCAASGITFDRYAMGWYRQAPGKERELVAAITSGGRTYYADSVKGRFTISRDNAKNTVYLQMNSLKPEDTAVYYCNATRGQYVGRYYYWGQGTQVTVSS
polyreactivity (PSR sort gate): high polyreactivity

QVQLVESGGGLVQAGGSLRLSCAASGITFDSYAMGWYRQAPGKERELVAAISYSGGSTYYADSVKGCFTISRDNAKNTVYLQMNSLKPEDTAVYYCAAASDDDYDYWGQGTQVTVSS
polyreactivity (PSR sort gate): low polyreactivity

QVQLVESGGGLVQAGGSLRLSCAASGITFDSYAMGWYRQAPGKERELVATISRSGTTTYYADSVKGRFTISRDNAKNTVYLQMNSLKPEDTAVYYCNTLRAYWTYHFYGAVRDGYDYWGQGTQVTVSS
polyreactivity (PSR sort gate): low polyreactivity

QVQLVESGGGLVQAGGSLRLSCAASGITFDYYAMGWYRQAPGKERELVAAISYSGGSTYYADSVKGRFTISRDNAKNTVYVQMNSLKPEDTAVYYCAAETFTISSDYYYWGQGTQVTVSS
polyreactivity (PSR sort gate): low polyreactivity

QVQLVESGGGLVQAGGSLRLSCAASGITFEGYAMRWYRQAPGKERELVAAITGSGSTTYYADSVKGRFTISRDNAKNTVYLQMNSLKPEDTAVYYCAADVSYKLYWGQGTQVTVSS
polyreactivity (PSR sort gate): low polyreactivity

QVQLVESGGGLVQAGGSLRLSCAASGITFEHYAMGWYREAPGKERELVAAINRSGDNTYYADSVKGRFTISRDNAKNTVYLQMNSLKPEDTAVNYCNTVELYWRGYDYWGQGTQVTVSS
polyreactivity (PSR sort gate): high polyreactivity

QVQLVESGGGLVQAGGSLRLSCAASGITFEKYAMGGYRQAPGKERELVAAITSSGGSTYYADSVKGRFTISRDNAKNTVYLQMNSLKPEDTAVYYCKARYYYADRTSGGYYYWGQGTQVTVSS
polyreactivity (PSR sort gate): high polyreactivity

QVQLVESGGGLVQAGGSLRLSCAASGITFEPYAMGWYRQAPGKEREFVADITWSGGSTYYADSVKGRFTISRDNAKNTVYLQMNSLKPEDTAVYYCAADGWTSYWSDYWGQGTQVTVAS
polyreactivity (PSR sort gate): low polyreactivity

QVQLVESGGGLVQAGGSLRLSCAASGITFERNGKGWYRQAPGKEWELVAAIRSGGSTYYADSVKGRFTISRDNAKNTVYLQMNSLKPEDTAVYYCAAVTQGGYTYLGDYWGQGTQVTVSS
polyreactivity (PSR sort gate): low polyreactivity

QVQLVESGGGLVQAGGSLRLSCAASGITFFAYAMGWYRQPPGKERELVAAISSGGSTNYADSVKGRFTISRDNAKNTVYLQMNSLKPEDTAVYYCAAVRSDLGEEGYAGYVYWGQGTQVTVSS
polyreactivity (PSR sort gate): low polyreactivity

QVQLVESGGGLVQAGGSLRLSCAASGITFFENAMGWYRQAPGKERELVASISSSGGSTYYADSVKGRFTISRDNAKNTVYLQMNSLKPEDTAVYYCAARYYSQKSYIGFRPGYEYWGQGTQVTVSS
polyreactivity (PSR sort gate): low polyreactivity

QVQLVESGGGLVQAGGSLRLSCAASGITFFGYAMGWYRQAPGKERELVAGISRSTGRTYYADSVMGRFTISRDNAKYTVYLQMNSLKPEDTAVYYCDARATRSLSRYMDYWGQGTQVTVSS
polyreactivity (PSR sort gate): high polyreactivity

QVQLVESGGGLVQAGGSLRLSCAASGITFFRYTMGWYRQAPGKERELVAAINIRGTRTYYADSVKGRFTISRDNAKNTVYLQMNSLKPEDTAVYYCAAGYAYRYSGLSYDVDYWGQGTQVTVSS
polyreactivity (PSR sort gate): high polyreactivity

QVQLVESGGGLVQAGGSLRLSCAASGITFFTYAMGWYRQAPGKEREFVATISYGGGSTYYADSVKGRFTISRDNAKNTVYLQMNSLKPEDTAVYYCNAEGYVPTYFQHYAYWGQGTQVTVSS
polyreactivity (PSR sort gate): low polyreactivity

QVQLVESGGGLVQAGGSLRLSCAASGITFFYNAMGWSRQAPGKERELVADITNSGSTYYADSVKVRFTISRDNAKNTVYLQMNSLKPEDTAVYDCAAGQAYDFFVYYPDDYWGQGTQVTVSS
polyreactivity (PSR sort gate): low polyreactivity

QVQLVESGGGLVQAGGSLRLSCAASGITFGANAMGWYRQAPGKERELVADITWSGGDTYYADSVKGRFTISRDNAKNTVYLQMNSLKPEDTAVYYCNALQPGLGSPLGEYDYWGQGTQVTVSS
polyreactivity (PSR sort gate): low polyreactivity

QVQLVESGGGLVQAGGSLRLSCAASGITFGCNAMGWYRQAPGKEREFVAAITFSDGSTRYADSVKGRFTISRDNAKNTVYLQMNSLKPEDTAVYYCAADTWSDKYDYWGQGTQVTVSS
polyreactivity (PSR sort gate): low polyreactivity

QVQLVESGGGLVQAGGSLRLSCAASGITFGDNAMGWYRQAPGKERELVAAITLSDVDTYADSVKGRFTISRDNAKNTVYLQMNSLKPEDTAVYYCAADYYAHQDYRFDYWGQGTQVTVSS
polyreactivity (PSR sort gate): low polyreactivity

QVQLVESGGGLVQAGGSLRLSCAASGITFGFNAMGWYRQAPGKERELVAAIRWGSGRTYYADSVKGRFTISRDNAKNTVYLQMNSLKPEDTAVYYCAAAPTTGKRPGYYYWGQGTQVTVSS
polyreactivity (PSR sort gate): high polyreactivity

QVQLVESGGGLVQAGGSLRLSCAASGITFGFYTMGWYRQAPGKERELVAAITSGGSTSYADSVKGRFTISRDNAKNTVYLQMNSLKPEDTAVYYCAADYLNPFPPYQYWKQSYDYWGQGTQVTVSS
polyreactivity (PSR sort gate): low polyreactivity

QVQLVESGGGLVQAGGSLRLSCAASGITFGHYAMGWYRQAPGKERELVAAINFSGGSTYYADSVKGRFTISRDNAKNTVYLQMNSLKPEDTAVYYCAAKYSRSLRYPWYNYWGQGTQVTVSS
polyreactivity (PSR sort gate): high polyreactivity

QVQLVESGGGLVQAGGSLRLSCAASGITFGLYSMGWYRQAPGKQRELVASISQSGGSTYYADSVKGRFTISRDNAKNTVYLQMNSLKPEDTAVYYCNARRRFWDFSTRGYDSWGQGTQVTVSS
polyreactivity (PSR sort gate): high polyreactivity

QVQLVESGGGLVQAGGSLRLSCAASGITFGNYAMGWYRQAPGKARELVAAITGSGGRTYYADSVKGRFTISRDNANNTVYLQMNRLKPEYTAVYYCNRRQYGRKKQYDYWGQGTQVTVSS
polyreactivity (PSR sort gate): high polyreactivity

QVQLVESGGGLVQAGGSLRLSCAASGITFGNYAMGWYSQAPGKERELVASFSWNVGSTYYADSVKGRFTISRDNAKNTVYLQMNSLKPEDTAVYYCARGYDRPRVATFHRFDYWGQGTQVTVSS
polyreactivity (PSR sort gate): low polyreactivity

QVQLVESGGGLVQAGGSLRLSCAASGITFGRNTKGWYRQAPGKERELVAAIDSGGNTYADSVKGRFTISRDNAKNTVYLQMNSLKPEDTAVYYCAADSYPAYLGFVGFDYWVQGTQVTVSS
polyreactivity (PSR sort gate): low polyreactivity

QVQLVESGGGLVQAGGSLRLSCAASGITFGRNTKGWYRQAPGKERELVAAIDSGGNTYADSVKGRFTISRDNAKNTVYLQMNSLKPEDTAVYYCNAGYVHSFDYWGQGTQVTVSS
polyreactivity (PSR sort gate): low polyreactivity

QVQLVESGGGLVQAGGSLRLSCAASGITFGRNTMGWYRQAPGKERELVAAIDSGGNTYAVSVKGRFTISRDNAKNTVYLQMNSLKPEDTAVYYCAVDGGEYSYYGTYDYWGQGTQVTVSS
polyreactivity (PSR sort gate): low polyreactivity

QVQLVESGGGLVQAGGSLRLSCAASGITFGRNTMGWYRQAPGKERELVAAITYRSGRTYYADSVKGRFTISRDTAKNTVYLQMNILKPEDTAVYYCNTVSPYYDYDYWGQGTQVTVSS
polyreactivity (PSR sort gate): high polyreactivity

QVQLVESGGGLVQAGGSLRLSCAASGITFGRYAMGWYRQAPGKERELVAAISWSGGSTYYADSVKGRFTLSRDNAKNTVYLQMNSLKPEDTAVYYCAVEWYYTSYHIRFYRDNYWGQGTQVTVSS
polyreactivity (PSR sort gate): high polyreactivity

QVQLVESGGGLVQAGGSLRLSCAASGITFGRYAMGWYRQAPGKERELVAAITTRGGSTYYADSVKGRFTISRDNAKNTVYLQMNSLKPEDTAVYYCAADYRWAGRYYYWGQGTQVTVSS
polyreactivity (PSR sort gate): high polyreactivity

QVQLVESGGGLVQAGGSLRLSCAASGITFGWNAMGWYRPAPGKERELVAAITEDGDSTYYADSVKGRFTISRDNAMNTVYLQMNSLKPEDTAGYYCAAEYYDVYTYVQYDSWGQGTQVTVSS
polyreactivity (PSR sort gate): high polyreactivity

QVQLVESGGGLVQAGGSLRLSCAASGITFHRYAMGWYRQAPGKERELVAAISGSGGNTYYADSVKGRFTISRDNAKNTVYLQMNILKPEDTAVYYCAAYPSWYVYPKYYYWGQGTQVTVSS
polyreactivity (PSR sort gate): high polyreactivity
